Results reported in patent publication US20200017880A1.

Key:
[1] = target: CD3 on Jurkat cells and on PBMCs (UniProt P07766); test: flow cytometry; second Fab-multimer staining of PBMCs that had been stained reversibly, treated with D-biotin and washed (control panel, far right)
[2] = target: CD28 on cells (PBMCs, T responder cells) (human) (UniProt P10747); test: flow cytometry; Fab monomers remaining on the liberated CD28+ cells after D-biotin and washing, detected with an antibody against the immunoglobulin kappa light chain

UniProt P07766, sequence (P07766 23-207): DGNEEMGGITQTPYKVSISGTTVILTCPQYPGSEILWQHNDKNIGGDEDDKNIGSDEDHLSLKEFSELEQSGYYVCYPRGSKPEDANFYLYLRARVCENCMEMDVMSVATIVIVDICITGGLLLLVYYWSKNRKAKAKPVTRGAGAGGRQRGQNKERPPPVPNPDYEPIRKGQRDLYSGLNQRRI

| % of cells within gate [1] [%] | % of cells within gate [2] [%] | Substance |
| --- | --- | --- |
| 64.7 | – | OKT3 Fab fragments multimerized by reversible binding to soluble Strep-Tactin conjugated with phycoerythrin |
| – | 5.91 | anti-CD28 Fab fragment derived from antibody CD28.3, heavy chain C-terminally fused to Twin-Strep-tag (monomeric Fab) |
